Results: patent EP2353607A1

Columns and labels:
[1] = target: integrin αvβ3 on cultured endothelial cells (species of the cells not stated); test: cell-based or functional assay
[2] = target: integrin α5β1 on cultured endothelial cells (species of the cells not stated); test: cell-based or functional assay

endothelial cell migration (scratch-wound closure) in the presence of 15µg/ml RDD protein, as compared to untreated control culture [1]: 54.5%
endothelial cell migration (scratch-wound closure) in the presence of 15µg/ml RDD protein, as compared to untreated control culture [2]: 54.5%
Substance: recombinant disintegrin domain (RDD) of metargidin (human ADAM-15)
